Data: doi:10.1101/2022.11.08.515461 (bioRxiv, 2022)

Molecular target: yeast dynein_(MOTOR)^MT-B (microtubule-bound mutant of the motor domain) (budding yeast | T. thermophilus) (UniProt P34945)
Test: mass photometry

yeast dynein_(MOTOR)^MT-B (microtubule-bound mutant of the motor domain) (budding yeast | T. thermophilus), sequence (P34945 whole entry, change not shown, the tested form may be a part): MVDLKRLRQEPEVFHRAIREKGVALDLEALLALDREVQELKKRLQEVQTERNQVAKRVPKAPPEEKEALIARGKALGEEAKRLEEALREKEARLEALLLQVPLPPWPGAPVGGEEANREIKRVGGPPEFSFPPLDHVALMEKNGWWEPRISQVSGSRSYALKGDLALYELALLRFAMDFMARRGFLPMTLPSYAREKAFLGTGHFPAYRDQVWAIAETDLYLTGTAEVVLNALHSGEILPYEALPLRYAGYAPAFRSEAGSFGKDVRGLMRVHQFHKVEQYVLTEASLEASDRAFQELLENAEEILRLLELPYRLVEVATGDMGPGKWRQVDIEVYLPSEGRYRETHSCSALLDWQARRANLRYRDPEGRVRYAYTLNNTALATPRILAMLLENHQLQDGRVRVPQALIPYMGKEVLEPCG

B1: Pac1-SNAP (natural protein)
chain: MTNWQQQLPLTDTQKNELDKSVLRYLNWNYKQTVRHEHAQDYESVRHAIVTLSGFLLQESVDRQEFISNNDTSNESMVDIDELLLPKKWNSIVRLQKKIIELEQNTETLVSQIKDLNTQVSELAQFKPTTSNGTSAHNVLKWIPRNLPSCLINVESSVTSVKLHPNLPIVFVATDHGKLYAFDLFNYTIPLASLQSHTKAITSMDVLFTNYTNSSKKNYLVIVTASKDLQIHVFKWVSEECKFQQIRSLLGHEHIVSAVKIWQKNNDVHIASCSRDQTVKIWDFHNGWSLKTFQPHSQWVRSIDVLGDYIISGSHDTTLRLTHWPSGNGLSVGTGHEFPIEKVKFIHFIEDSPEIRFRTPSTDRYKNWGMQYCVSASRDRTIKIWEIPLPTLMAHRAPIPNPTDSNFRCVLTLKGHLSWVRDISIRGQYLFSCADDKSVRCWDLNTGQCLHVWEKLHTGFVNCLDLDVDFDSNVTPRQMMVTGGLDCKSNVFMR
modifications: JF646-SNAP-tag ligand on the SNAP tag (fluorescent labelling)
stoichiometry N (Pac1 dimer per dynein (MOTOR) monomer): 1
